In patent EP4455161A1 (ONO Pharmaceutical Co., Ltd., dated 2024) one finds binding result and EC50 data, which are given here for 1 molecule.

For assay [1], the target named is T1, CRMP2 peptide H-EVSVTPKTVTPASSAKTSPAKQQC-NH2 (C-terminal amide).
T1 peptide: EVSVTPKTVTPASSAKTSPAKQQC
Nature of the assay: ELISA.

Assay [2] addresses T2, pCRMP2 peptide H-EVSV(pT)PKTV(pT)PASSAKT(pS)PAKQQC-NH2 (phosphothreonine at T509 and T514, phosphoserine at S522 (CRMP2 numbering); C-terminal amide).
T2 construct: also called pCRMP2 peptide containing three phospho-sites T509, T514 and S522
T2 peptide: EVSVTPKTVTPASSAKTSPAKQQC
Nature of the assay: ELISA. For orientation: In an ELISA, binding on a coated surface is turned into a signal by an enzyme label.

The target in assay [3] is T3, CRMP2 peptide TVTPASSAKTSPAKQQAPPVRC-NH2 (C-terminal amide).
T3 peptide: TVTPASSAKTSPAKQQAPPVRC
Nature of the assay: ELISA.

Assay [4] concerns the target T4, pCRMP2 peptide H-TVTPASSAKT(pS)PAKQQAPPVRC-NH2 (phosphoserine at S522 (CRMP2 numbering); C-terminal amide).
T4 construct: also called pCRMP2 peptide containing a single S522 phospho-site
T4 peptide: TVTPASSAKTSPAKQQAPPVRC
Nature of the assay: ELISA.

Assay [5] addresses T5, CRMP2 peptide 128 (TPKTVTPASSAKTSP) (human).
T5 construct: 15-mer spotted on a cellulose membrane array
T5 peptide: TPKTVTPASSAKTSP
Nature of the assay: overlapping peptide array.

The target in assay [6] is T6, CRMP2 peptide 129 (VTPASSAKTSPAKQQ) (human).
T6 construct: 15-mer spotted on a cellulose membrane array
T6 peptide: VTPASSAKTSPAKQQ
Kind of assay: overlapping peptide array.

Assay [7] has as its target T7, Peptide 4152960: ….
T7 construct: also called non-phosphorylated CRMP2 peptide
Nature of the assay: direct ELISA on coated peptide (Fig. 5).

Assay [8] deals with T8, Peptide 4152961: VCEVSV(p)T509… (phosphothreonine at T509 (CRMP2 numbering)).
T8 construct: also called CRMP2 peptide with phosphorylation at T509
Nature of the assay: direct ELISA on coated peptide (Fig. 5).

Assay [9] concerns the target T9, Peptide 4152963: …(p)S522PAKQQA (phosphoserine at S522 (CRMP2 numbering)).
T9 construct: also called CRMP2 peptide with phosphorylation at S522
Nature of the assay: direct ELISA on coated peptide (Fig. 5).

Assay [10] deals with T10, recombinant human full length CRMP1 (human, UniProt Q14194 1-572).
T10 construct: mature
Kind of assay: direct ELISA, recombinant human CRMP1-5 coated at 5 µg/mL.

T10 sequence (Q14194 whole entry): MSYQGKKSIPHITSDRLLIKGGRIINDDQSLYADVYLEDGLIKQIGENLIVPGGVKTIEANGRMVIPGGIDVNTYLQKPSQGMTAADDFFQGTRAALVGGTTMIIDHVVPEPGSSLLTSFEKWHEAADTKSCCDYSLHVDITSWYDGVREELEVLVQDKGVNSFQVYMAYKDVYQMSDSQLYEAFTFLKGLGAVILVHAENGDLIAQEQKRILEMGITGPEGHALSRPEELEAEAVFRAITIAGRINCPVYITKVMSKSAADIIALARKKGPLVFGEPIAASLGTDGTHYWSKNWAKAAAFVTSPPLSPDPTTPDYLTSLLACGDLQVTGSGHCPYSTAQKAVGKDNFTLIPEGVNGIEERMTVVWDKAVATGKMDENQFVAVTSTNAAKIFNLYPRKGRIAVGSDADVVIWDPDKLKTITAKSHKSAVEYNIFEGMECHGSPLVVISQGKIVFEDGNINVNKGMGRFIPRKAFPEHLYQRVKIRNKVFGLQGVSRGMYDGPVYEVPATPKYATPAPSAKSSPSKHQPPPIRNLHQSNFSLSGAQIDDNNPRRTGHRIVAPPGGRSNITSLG

B1: NI-504.3E7 (antibody, human IgG1, V domains shown)
VH: EVQLVETGGGFVQPGGSLQLSCAVSGFPYSGTSFHWVRQVSGKGLEWIGRIRSKSDNYETSYTESLKGRFIVSRDDSKNMVRLHLYSLRTEDTALYYCTTGIIVVDTSYLDHWGRGTLVTVSS
VL: SYELTQPPSASVSPGQTARITCSGAALPKKYAYWYQLKSGQAPVLVIYEDTKRPSGIPERFSGSSSGTLATLTINGALVEDEADYYCYSTDSSGDVWVFGGGTKLTVL
notes: VH_3E7 + VL_3E7
B1: the binding result in assay [1], in [2], in assay [3], in assay [4], in assay [5] and in assay [6] was “binds” in each case. For the same molecule, the binding result in assay [7], in assay [8] and in [9] was “binds” throughout. For the same molecule, the EC50 in assay [10] amounted to 69 nM.

Usually EC50 stands for the concentration needed to bring the measured effect to its halfway point.
